Data reported in US20210253718A1, “FRIZZLED5 PROTEIN-BINDING AGENTS” (Modmab Therapeutics Corporation, priority 2016, published 2021).
Numbering of substitutions follows the chain as printed.

T1: FZD4 CRD (Homo sapiens, UniProt Q9ULV1)
T1 construct: E42-V167; GPI anchor signal (C); expressed in transfected cells; host or cells: CHO cells, lentiviral pLenti-puro
T1 sequence (Q9ULV1 42-167): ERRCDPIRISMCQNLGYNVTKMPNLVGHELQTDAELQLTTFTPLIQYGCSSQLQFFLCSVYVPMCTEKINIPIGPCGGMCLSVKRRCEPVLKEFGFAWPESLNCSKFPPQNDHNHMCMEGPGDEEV

T2: FZD10 CRD (Homo sapiens, UniProt Q9ULW2)
T2 construct: 30-156; GPI anchor signal (C); expressed in transfected cells; host or cells: CHO cells, lentiviral pLenti-puro
T2 sequence (Q9ULW2 30-156): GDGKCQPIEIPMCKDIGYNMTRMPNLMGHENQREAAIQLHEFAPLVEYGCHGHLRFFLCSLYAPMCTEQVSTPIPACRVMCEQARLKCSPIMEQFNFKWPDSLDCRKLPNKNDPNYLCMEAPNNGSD

B1: Fab-2920: anti-FZD5 Fab with antibody variable region Fv-2920; CDR SEQ ID NOs: 35, 36, 59, 98, 135, 170 (antibody, V domains shown)
VH: EVQLVESGGGLVQPGGSLRLSCAASGFNISYYYIHWVRQAPGKGLEWVASIYPSSGSTSYADSVKGRFTISADTSKNTAYLQMNSLRAEDTAVYYCARGGMDYWGQGTLVTVSS
VL: DIQMTQSPSSLSASVGDRVTITCRASQSVSSAVAWYQQKPGKAPKLLIYSASSLYSGVPSRFSGSRSGTDFTLTISSLQPEDFATYYCQQWFAGALITFGQGTKVEIK
B2: Fab-2924: anti-FZD5 Fab with antibody variable region Fv-2924; CDR SEQ ID NOs: 35, 36, 63, 101, 139, 153 (antibody, V domains shown)
VH: B1 VH with Y32S, P53S, S54Y, S55Y, G56S, G100A, M101L
VL: DIQMTQSPSSLSASVGDRVTITCRASQSVSSAVAWYQQKPGKAPKLLIYSASSLYSGVPSRFSGSRSGTDFTLTISSLQPEDFATYYCQQWYSGHSLITFGQGTKVEIK
B3: Fab-2921: anti-FZD5 Fab with antibody variable region Fv-2921; CDR SEQ ID NOs: 35, 36, 60, 98, 136, 162 (antibody, V domains shown)
VH: B1 VH with G100A
VL: B1 VL with F92Y, A95S
B4: Fab-2936: anti-FZD5 Fab with antibody variable region Fv-2936; CDR SEQ ID NOs: 35, 36, 75, 112, 151, 179 (antibody, V domains shown)
VH: B1 VH with I34M, P53S, G99A, G100A
VL: B1 VL with F92Y, G94A, A95S
B5: Fab-2927: anti-FZD5 Fab with antibody variable region Fv-2927; CDR SEQ ID NOs: 35, 36, 66, 104, 142, 174 (antibody, V domains shown)
VH: EVQLVESGGGLVQPGGSLRLSCAASGFNIYYSSMHWVRQAPGKGLEWVASIYPSYGYTSYADSVKGRFTISADTSKNTAYLQMNSLRAEDTAVYYCARYGYYGFDYWGQGTLVTVSS
VL: B2 VL with Y92G, G94H, H95G, S96Y

Tested on: CHO cells not expressing Frizzled CRD
Assay: Flow cytometry of anti-FZD5 Fab binding to CHO cells not expressing Frizzled CRD (background)
Conditions: not given
From the text: The binding of anti-FZD5 Fabs to cell surface-expressed Frizzled protein was further determined for each member of the Frizzled family via flow cytometry and immunofluorescence analysis of a panel of 10 CHO cell lines, each ectopically over-expressing the extracellular cysteine-rich domain (CRD) of a different Frizzled protein family member.

Molecule	Median fluorescence, Frizzled CRD overexpressed on CHO cells: None
B1	3.37
B2	4.1
B3	3.22
B4	2.81
B5	3.79

Tested on: PATU8988S cells
Assay: Effect of anti-FZD5 Fabs on proliferation of pancreatic cancer cell lines (percent growth inhibition)
Assay type: cell-based, human
Conditions: Fab 10 μg/ml
Protocol: (§1) The effect of presently disclosed anti-FZD5 Fabs on proliferation of RNF43 loss-of-function mutant pancreatic cancer cell lines HPAFII, PATU8988S and ASPC-1; and on pancreatic cancer cell line RWP1, was tested at […] and 10 μg/ml.

Molecule	percent growth inhibition, PATU8988s 10 μg/ml
B1	−5.60%
B2	−21.08%
B3	−16.29%
B4	−23.52%
B5	−23.95%

Tested on: HPAFII cells
Assay: as above
Assay type: cell-based, human
Conditions: Fab 2 μg/ml
Protocol: as §1

Molecule	percent growth inhibition, HPAFII 2 μg/ml
B1	29.48%
B2	−10.43%
B3	30.70%
B4	−0.56%
B5	6.46%

Same assay, conditions: Fab 10 μg/ml

Molecule	percent growth inhibition, HPAFII 10 μg/ml
B1	32.93%
B2	−5.35%
B3	44.23%
B4	12.21%
B5	−7.63%

Tested on: ASPC-1 cells
Assay: as above
Assay type: cell-based, human
Conditions: Fab 10 μg/ml
Protocol: as §1

Molecule	percent growth inhibition, ASPC-1 10 μg/ml
B1	40.69%
B2	16.29%
B3	47.95%
B4	22.02%
B5	31.00%

Tested on: RWP1 cells
Assay: as above
Assay type: cell-based, human
Conditions: Fab 10 μg/ml
Protocol: as §1

Molecule	percent growth inhibition, RWP1 10 μg/ml
B1	−3.09%
B2	48.95%
B3	−0.10%
B4	−5.97%
B5	70.38%

Tested on: PATU8988S cells
Assay: as above
Assay type: cell-based, human
Conditions: Fab 2 μg/ml

Molecule	percent growth inhibition, PATU8988s 2 μg/ml
B1	6.20%
B2	−16.11%
B3	−1.56%
B4	−8.03%
B5	−15.15%

Tested on: ASPC-1 cells
Assay: as above
Assay type: cell-based, human
Conditions: Fab 2 μg/ml

Molecule	percent growth inhibition, ASPC-1 2 μg/ml
B1	33.66%
B2	8.55%
B3	43.20%
B4	17.01%
B5	12.47%

Tested on: RWP1 cells
Assay: as above
Assay type: cell-based, human
Conditions: Fab 2 μg/ml

Molecule	percent growth inhibition, RWP1 2 μg/ml
B1	−16.26%
B2	42.76%
B3	−4.47%
B4	0.02%
B5	46.02%

Molecular target: T1, FZD4 CRD
Assay: Immunofluorescence of anti-FZD5 Fab binding to CHO cells overexpressing Frizzled CRD
Parameters: key: −: no binding; +: very weak binder; ++: weak binder; +++: good binder; ++++: very good binder
Conditions: not given
How it was run: (§2)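 CHO lines each stably expressing one human Frizzled CRD as a myc-tagged, GPI-anchored cell-surface cassette (FZD_CRD-MYC-GPI, lentiviral pLenti-puro) were probed with anti-FZD5 Fabs. Binding was read by immunofluorescence, alongside flow cytometry, across the 10-member panel.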

Immunofluorescence binding, Frizzled CRD overexpressed on CHO cells: FZD4	Molecule
−	B1
−	B2
−	B3
−	B4
−	B5

Molecular target: T3, FZD2 CRD (Homo sapiens, UniProt Q14332)
T3 construct: D35-P161; GPI anchor signal (C); expressed in transfected cells; host or cells: CHO cells, lentiviral pLenti-puro
Assay: as above
Parameters: key: −: no binding; +: very weak binder; ++: weak binder; +++: good binder; ++++: very good binder
Conditions: not given
How it was run: as §2

Immunofluorescence binding, Frizzled CRD overexpressed on CHO cells: FZD2	Molecule
−	B1
−	B2
−	B3
−	B4
+++	B5

Molecular target: T2, FZD10 CRD
Assay: as above
Parameters: key: −: no binding; +: very weak binder; ++: weak binder; +++: good binder; ++++: very good binder
Conditions: not given
How it was run: as §2

Immunofluorescence binding, Frizzled CRD overexpressed on CHO cells: FZD10	Molecule
−	B1
−	B2
−	B3
−	B4
−	B5
